A short description of data set [1]: Polymer binding test, cellulose. On the procedure: Different polymers (cellulose, PLA, PCL, and PHB) were tested to evaluate the ability of KrCUT and KrCUT189 to bind these materials. Binding assays for PCL and PLA could not be performed since both polymers were degraded by the enzymes.
A short description of data set [2]: pH optimum in Universal Buffer. The format is biochemical. The settings on record: pH 5-11, p-nitrophenyl butyrate. The method, then:
(§1) Esterase activity was determined by monitoring the formation of pNP at 410 nm from various pNP-esters using a Beckman UV spectrophotometer (model DU 640) (21). Substrates were dissolved in isopropanol and were added to 50 mM sodium phosphate buffer pH 8.0 to give 10% (v/v) total isopropanol concentration in a 1 mL reaction volume. pNP-butyrate was used at a final concentration of 1.2 mM. For pNP-caprylate, myristate and palmitate, the final concentration ranged from 0.1 to 0.5 mM. The reaction (1 mL) was started by adding an appropriate amount of enzyme. One enzyme unit (U) is defined as the amount of enzyme that produced 1 μmol of product (pNP) per min; specific activity is expressed as U/mg protein. A molar extinction coefficient of 15 mM^−1 cm^−1 for pNP is used for calculating enzyme activity.
Universal Buffer solutions were prepared according to Britton and Robinson (Surinenaite et al., 2002), having the selected pH value from 5-11. Activity of KrCUT and KrCUT189 were measured at the indicated pH, using p-nitrophenyl butyrate as substrate as described in Example 1, section 1.6). Curves were obtained by plotting values of activity against pH.

A short description of data set [3]: Pectin release from hemp fibre (TBA method). On the procedure: Hemp fibres (German variety, 150 mg) were treated with either pectate lyase (PL, 10 U) or PL combined with various amounts of KrCUT (40, 60 and 100 U). Control experiments containing no enzyme or 100 U of KrCUT were conducted for comparison. After incubation at 37° C., aliquots of the reaction mixture were taken at 1 h 30 min and 3 h, and analyzed for pectin degradation products using the thio-barbituric acid (TBA) method (52) which detects released unsaturated compounds spectrophotometrically at 550 nm.
The quantity of pectin released from natural hemp fibre by KrCUT in conjunction with the action of a thermostable pectate lyase was assessed as described in Example 1, section 1.13. The thermostable pectate lyase alone released a certain amount of pectin as expected of the pectinolytic activity (Xiao et al., 2008).

Data set [4] is described as follows: Substrate range on p-NP esters, KrCUT versus KrCUT189. The format is biochemical. On the procedure:
as §1

Data set [5] is described as follows: Degradation of poly(1,3-propylene adipate). The settings on record: 2.5 μM, after 24 hours.
A short description of data set [6]: Esterase assay, specific activity of KrCUT versus YebF-KrCUT. The format is biochemical. The settings on record: pNP-palmitate as substrate. On the procedure: as §1
The presence of YebF appeared to greatly decrease the activity of the fusion proteins. […] The results are shown in FIG. 6, in which fractions C1-C10 correspond to the first peak (KrCUT) and fractions D9-D11 correspond to the second peak (YebF-KrCUT).

A short description of data set [7]: Stability of KrCUT in stabilisation buffer. The format is physicochemical. On the procedure: For stability testing, culture medium showing KrCUT activity, and containing 100 mg total protein was used. Stabilisation buffer composed of sodium gluconate 1-5%, sodium carbonate 1-5%, sodium citrate 1-5% and propylene glycol 1-5% was prepared; 50 mL enzyme solution was added to 200 mL of buffer and stored at room temperature, after mixing. Samples were taken at defined time periods and the enzymatic activity was measured using p-nitrophenyl dodecanoate as substrate.

Data set [8] is described as follows: Hydrolysis of cutin, GC-MS of released monomers. The format is biochemical, Apple (Golden Delicious). The method, then:
Apple (Golden Delicious) cutin was used as substrate. The outer layer of the fruit was peeled by hand and cutin preparation carried out as described by Gerard et al. (1993) with minor modifications. Discs of apple peels were incubated at 50° C. in oxalate buffer [(oxalic acid (4 g/L)/ammonium oxalate (16 g/L)] for 16 h and then collected and washed several times with deionized water. The sample was treated with 0.5% Novozymes Aspergillus niger pectinase (Sigma P2736) in 100 mM phosphate citrate buffer pH 5.8 for 16 h. The cutin sheets were washed with ethanol, followed by several washes with chloroform, and then incubated in chloroform at 45° C. for 16 h, and finally dried to constant weight. The cutin was ground in a Cyclone sample Mill (UDY Corporation, Fort Collings, Colo., USA).
A typical reaction mixture (2 mL) contained 20 mg cutin and an appropriate amount of cutinase in 25 mM sodium phosphate buffer, pH 8.0. The mixture was incubated in a water bath at 37° C. with gentle shaking for 16 h. Assays were conducted in duplicate. At the end of the reaction, the remaining cutin was removed by centrifugation (10 min, 5000 rpm). The resulting solution was acidified with hydrochloric acid and cutin monomers extracted with chloroform/methanol, according to Bligh and Dyer (1959). The organic phase was removed by evaporation under an air stream and the dried residue dissolved in 1 mL chloroform/methanol (85:15) and used for further derivatization. Trimethylsilylation of cutin monomers was performed with BSTFA [N, O-bis(trimethylsilyl) trifluoroactamide] and TMCS (trimethylchlorosilane) provided by the supplier in the ratio 99:1 (Supelco, Bellefonte, USA) at 70° C. for 3 h, and the composition of the mixture determined by GC-MS.
Cutin monomers were identified by GC-MS on an Agilent 6890 gas chromatography system coupled to a 5973 quadrupole mass spectrometer. 1 μL was injected under splitless condition on a 50 m×0.20 mm×0.33 μm DB-5MS capillary column (Agilent). The oven temperature program was 70° C. (for 1.39 min) to 136° C. at 64° C./min and to 290° C. at 2.5° C./min (for 55 min). Helium was used as carrier gas. The temperature at the injection port was 250° C. The detector was run in El mode at 70 eV. Masses were scanned between 50 and 650 amu.
Components were identified by comparison of the MS spectra of their trimethylsilyl (TMSi) derivatives, as methyl ester TMSi ether or as TMSi ester TMSi ether, with published spectra (Kallio et al., 2006; Philipps et al., 2002).
To measure cutinase activity, assays of cutin hydrolysis were performed as described in Example 1, section 1.7 at two different enzyme concentrations. Characteristic cutin components, C16 and C18 hydroxyl fatty acids, were identified by GC-MS analysis.

B1: KrCUT: mature Kineococcus radiotolerans cutinase, amino acids 34-294 of SEQ ID NO: 1; SEQ ID NO: 6 (protein)
chain: ATCSDVDVVFARGTGETPGLGVVGGPFVRSLTGELSDRTVTSHAVDYAASSSQASAGPGATAMSAHVREVAAACPSTRFVLGGYSQGATVTDIALGIRTGTTTGTPVPAELAGRVAAVVVFGNPLGLSGRTIATASSTYGPKSKDYCNSSDSVCGSAPKTGTGGHLSYASNGSTTDGARFAAGLVRAAGTPTTPTPTPTPTPVPTTCVRDSTRDHVAADRAVSLYGRAYARGSRDSLGATSSYNVVSLQQVEGGWRLVTAC
modifications: Kineococcus radiotolerans; (1)..(261) KrCUT (lacking residues 1-33 of ssKrCUT)
On to B1, for which the binding to cellulose entry in data set [1] is “did not bind”. In data set [2], the pH optimum stood at 8. For the same molecule, in data set [3] (highest concentration, absence of pectate lyase), the “pectin released from hemp fibre” value was “negligible amounts”. Moreover, the “pectin degradation products detected” value in data set [3] (increasing amount of cutinase, fixed pectate lyase) is “higher percentage of pectin degradation products”. For the same molecule, in data set [4], the “activity towards pNB-acetate” value is reported as “little activity” and the “fold higher activity with pNP butyrate over pNP-palmitate” value was 8 fold. For the same molecule, in data set [4] (p-NP esters), the “substrate giving the highest activity” value is “pNP butyrate”. Besides, the “adipic acid found in the reaction mixture” value in data set [5] is reported as 12%. Moreover, in data set [6], the specific activity amounted to 162 U/mg. In data set [7] (9 months at room temperature), the initial activity present entry was “up to 65%”. In addition, the “time after which activity loss could be observed” value in data set [7] (room temperature) amounted to 4 months. Besides, in data set [8] (20 Units cutinase), the “10,16-dihydroxyhexadecanoic acid released, Area (%)” value turned out to be 39.25 ± 2.5% and the “18-hydroxy-octadeca-9,12-dienoic acid released, Area (%)” value is reported as 18.0 ± 6.3%. Besides, in data set [8] (200 Units cutinase), the “9,10,18-trihydroxyoctadec-9 enoic acid released, Area (%)” value is recorded as 6.25 ± 0.40%; the “9,10,18-trihydroxyoctadec-10,12-dienoic acid released, Area (%)” value is on record as 13.25 ± 0.40%; the “9,10,18-trihydroxyoctadecanoic acid released, Area (%)” value is 25.55 ± 0.10%; the “9,16-dihydroxyhexadecanoic acid released, Area (%)” value turned out to be 3.81 ± 0.62%. Moreover, in data set [8] (200 Units cutinase), the “10,16-dihydroxyhexadecanoic acid released, Area (%)” value was found to be 27.74 ± 0.41% and the “18-hydroxy-octadeca-9,12-dienoic acid released, Area (%)” value is given as 2.22 ± 0.13%.

For the origin of these results see US10227575B2, “Multi-domain enzymes having cutinase activity, compositions comprising same and uses thereof” (OZYMES, priority 2015, dated 2019).
